Biological target: SARS-CoV-2 spike protein (wild type) on pseudovirus (SARS-CoV-2) (UniProt P0DTC2)
Test: cell-based or functional assay

ACE2-Ig (positive control of the pseudovirus neutralisation assay) (Fc fusion)
IC50, pseudovirus neutralisation (positive control): 0.9 mg/L

— CN116744966A
